The data set in a line: total protein half-life in vivo (active degradation + dilution); higher = more stable protein.
The mark [1] stands for this setting: E. coli NCM3722 delta-clpP delta-lon delta-hslV, growth: N-lim chemostat, doubling time 6 h.
The mark [2] stands for this setting: E. coli NCM3722 delta-clpP, growth: N-lim chemostat, doubling time 6 h.
The mark [3] stands for this setting: E. coli NCM3722 delta-hslV, growth: N-lim chemostat, doubling time 6 h.
Where [4] appears, read: E. coli NCM3722 delta-lon, growth: N-lim chemostat, doubling time 6 h.
The mark [5] stands for this setting: E. coli NCM3722 delta-smpB, growth: N-lim chemostat, doubling time 6 h.
The mark [6] stands for this setting: wild type E. coli NCM3722, growth: C-lim chemostat, doubling time 3 h.
Setting [7] is: wild type E. coli NCM3722, growth: C-lim chemostat, doubling time 6 h.
The mark [8] stands for this setting: wild type E. coli NCM3722, growth: C-lim chemostat, doubling time 12 h.
[9] abbreviates: wild type E. coli NCM3722, growth: N-lim chemostat, doubling time 6 h.
The mark [10] stands for this setting: wild type E. coli NCM3722, growth: N-lim chemostat, doubling time 12 h.
The mark [11] stands for this setting: wild type E. coli NCM3722, growth: P-lim chemostat, doubling time 6 h.
The mark [12] stands for this setting: wild type E. coli NCM3722, growth: P-lim chemostat, doubling time 12 h.

± gives the standard deviation of the averaged measurements. Some results are limits rather than exact numbers.

As for “MMELMVVHPHIFWLSLGGLLLAAEMLGGNGYLLWSGVAAVITGLVVWLVPLGWEWQGVMFAILTLLAAWLWWKWLSRRVREQKHSDSHLNQRGQQLIGRRFVLESPLVNGRGHMRVGDSSWPVSASEDLGAGTHVEVIAIEGITLHIRAVSS [P0AAS3]”, the “total protein half-life in vivo” value was 6.35 ± 0.63 h under setting [1]; 6.38 ± 0.81 h under setting [2]; 5.57 ± 0.15 h under setting [3]; 5.91 h under setting [4]; 6.81 h under setting [5]; 2.86 h under setting [6]. For the same sequence, the “total protein half-life in vivo” value reads like this: under setting [7], over 8 h; under setting [8], 10.5 ± 1.8 h; under setting [9], 6.42 ± 0.38 h; under setting [10], 11.1 ± 0.17 h; under setting [11], 7.12 h; under setting [12], 10.6 ± 0.41 h.

For “MISSLWIAKTGLDAQQTNMDVIANNLANVSTNGFKRQRAVFEDLLYQTIRQPGAQSSEQTTLPSGLQIGTGVRPVATERLHSQGNLSQTNNSKDVAIKGQGFFQVMLPDGSSAYTRDGSFQVDQNGQLVTAGGFQVQPAITIPANALSITIGRDGVVSVTQQGQAAPVQVGQLNLTTFMNDTGLESIGENLYTETQSSGAPNESTPGLNGAGLLYQGYVETSNVNVAEELVNMIQVQRAYEINSKAVSTTDQMLQKLTQL [P0ABX5]”, the “total protein half-life in vivo” value by setting is: under setting [1], 4.91 ± 2.6 h; under setting [2], over 8 h; under setting [6], 1.53 ± 0.27 h; under setting [7], 5.1 ± 3.6 h; under setting [8], 6.45 ± 1.9 h.

Consider “MSLTLTLTGTGGAQGVPAWGCECAACARARRSPQYRRQPCSGVVKFNDAITLIDAGLHDLADRWSPGSFQQFLLTHYHMDHVQGLFPLRWGVGDPIPVYGPPDEQGCDDLFKHPGLLDFSHTVEPFVVFDLQGLQVTPLPLNHSKLTFGYLLETAHSRVAWLSDTAGLPEKTLKFLRNNQPQVMVMDCSHPPRADAPRNHCDLNTVLALNQVIRSPRVILTHISHQFDAWLMENALPSGFEVGFDGMEIGVA”, for which the “total protein half-life in vivo” value reads like this: under setting [1], 6.78 h; under setting [2], 4.09 ± 0.048 h; under setting [3], 4.36 ± 0.11 h; under setting [4], 4.56 ± 0.17 h; under setting [5], 4.8 h; under setting [6], 2.37 h. The “total protein half-life in vivo” value runs as follows: under setting [7], 4.07 h; under setting [8], 9.33 ± 0.34 h; under setting [9], 4.3 h; under setting [10], 7.1 h; under setting [11], 4.41 h; under setting [12], 8.54 ± 2.5 h.

Consider “MALLEICCYSMECALTAQQNGADRVELCAAPKEGGLTPSLGVLKSVRQRVTIPVHPIIRPRGGDFCYSDGEFAAILEDVRTVRELGFPGLVTGVLDVDGNVDMPRMEKIMAAAGPLAVTFHRAFDMCANPLYTLNNLAELGIARVLTSGQKSDALQGLSKIMELIAHRDAPIIMAGAGVRAENLHHFLDAGVLEVHSSAGAWQASPMRYRNQGLSMSSDEHADEYSRYIVDGAAVAEMKGIIERHQAK”, for which the “total protein half-life in vivo” value stood at 5.29 ± 1.1 h under setting [1]; 5.31 ± 1.4 h under setting [2]; 5.99 ± 2.8 h under setting [3]; 4.73 ± 0.25 h under setting [4]; 4.47 ± 0.33 h under setting [5]; 3.26 ± 0.64 h under setting [6]. Also, the “total protein half-life in vivo” value reads like this: under setting [7], 6.29 ± 0.61 h; under setting [8], 9.735 ± 0.081 h; under setting [9], 4.35 ± 0.53 h; under setting [10], 6.84 ± 0.21 h; under setting [11], 5.85 ± 0.37 h; under setting [12], 11.8 ± 1.1 h.

Consider “MKMNKSLIVLCLSAGLLASAPGISLADVNYVPQNTSDAPAIPSAALQQLTWTPVDQSKTQTTQLATGGQQLNVPGISGPVAAYSVPANIGELTLTLTSEVNKQTSVFAPNVLILDQNMTPSAFFPSSYFTYQEPGVMSADRLEGVMRLTPALGQQKLYVLVFTTEKDLQQTTQLLDPAKAYAKGVGNSIPDIPDPVARHTTDGLLKLKVKTNSSSSVLVGPLFGSSAPAPVTVGNTAAPAVAAPAPAPVKKSEPMLNDTESYFNTAIKNAVAKGDVDKALKLLDEAERLGSTSARSTFISSVKGKG”, for which the “total protein half-life in vivo” value is 5.04 ± 2.7 h under setting [1]; 3.08 h under setting [2]; 6.28 h under setting [3]; 3.75 ± 0.98 h under setting [4]; 2.82 ± 0.1 h under setting [5]; 2.84 ± 0.031 h under setting [6]. Further, the “total protein half-life in vivo” value under setting [7] amounted to 4.94 ± 0.13 h; the “total protein half-life in vivo” value under setting [8] was found to be 10.5 ± 1.6 h; the “total protein half-life in vivo” value under setting [9] came out at 3.93 ± 0.67 h; the “total protein half-life in vivo” value under setting [10] came to 7.51 ± 0.25 h; the “total protein half-life in vivo” value under setting [11] is 4.18 h; the “total protein half-life in vivo” value under setting [12] came out at 6.149 ± 0.0079 h.

Regarding “MIIYLHGFDSNSPGNHEKVLQLQFIDPDVRLISYSTRHPKHDMQHLLKEVDKMLQLNVDERPLICGVGLGGYWAERIGFLCDIRQVIFNPNLFPYENMEGKIDRPEEYADIATKCVTNFREKNRDRCLVILSRNDEALNSQRTSEELHHYYEIVWDEEQTHKFKNISPHLQRIKAFKTLG [P0A8E1]”, the “total protein half-life in vivo” value was found to be 4.77 ± 0.071 h under setting [1]; 4.58 ± 1.1 h under setting [2]; 4.44 ± 0.73 h under setting [3]; 4.75 ± 0.35 h under setting [4]; 4.37 ± 0.91 h under setting [5]; 2.64 ± 0.47 h under setting [6]. Further, the “total protein half-life in vivo” value runs as follows: under setting [7], 4.65 ± 0.2 h; under setting [8], 7.7 ± 1.6 h; under setting [9], 3.92 ± 0.39 h; under setting [10], 6.49 ± 0.25 h; under setting [11], 5.07 ± 0.15 h; under setting [12], 10.6 ± 0.38 h.

For the sequence “MKLSRISAINWNKISDDKDLEVWNRLTSNFWLPEKVPLSNDIPAWQTLTVVEQQLTMRVFTGLTLLDTLQNVIGAPSLMPDALTPHEEAVLSNISFMEAVHARSYSSIFSTLCQTKDVDAAYAWSEENAPLQRKAQIIQQHYRGDDPLKKKIASVFLESFLFYSGFWLPMYFSSRGKLTNTADLIRLIIRDEAVHGYYIGYKYQKNMEKISLGQREELKSFAFDLLLELYDNELQYTDELYAETPWADDVKAFLCYNANKALMNLGYEPLFPAEMAEVNPAILAALSPNADENHDFFSGSGSSYVMGKAVETEDEDWNF”, the “total protein half-life in vivo” value worked out at 3.43 ± 1.1 h under setting [1]; 3.14 ± 0.99 h under setting [2]; 2.03 h under setting [5]; 2.18 ± 0.23 h under setting [6]; 3.25 ± 0.41 h under setting [7]; 4.27 h under setting [8]. In addition, the “total protein half-life in vivo” value reads like this: under setting [9], 1.85 h; under setting [12], 6.6 h.

The values above are taken from the supplement of paper PMC11246515.
